{"source": "the RNAGym collection of RNA variant scans (doi:10.1073/pnas.2313332121)", "parents": {"B1": {"name": "TPR t1 (parent)", "chain": "GACCAAUCUGCCCUCAGAGCUCGAGAACAUCUUCGGAUGCAGAGGAGGCAGGCUUCGGUGGCGCGAUAGCGCCAACGUCCUCAACCUCCAAUGCAUCCCACCACAUGAUGAUGCCUGAAGAGCCUUGGUUUUUUG"}}}
{"variants_of": "B1", "assay": "polymerase ribozyme fitness, log enrichment relative to wild type (log ratio); higher = more active; in vitro selection for triplet polymerase activity", "outline": "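To select mutant libraries of each subunit of a heterodimeric triplet polymerase ribozyme, built by PCR and transcribed, each was annealed with a biotinylated primer, partner subunit and triplets, then incubated frozen at −7 °C. Extended constructs were gel-excised, captured on streptavidin beads and amplified by RT-PCR, in one round carried out in triplicate. Illumina sequencing of input and output libraries kept genotypes with ≥10 input reads and ≥1 read per output. Fitness is the base-2 logarithm of genotype enrichment relative to wild-type enrichment, from inverse-variance-weighted replicate averages.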"}
{"variant": "GACCAAUCUGCCCUCAUAGCUCGAGAACAUCUUCGGAUGCAGAGGAGGAAGGCUUAGGUGGCGCGAUAGCGCCAACGUCCUCAACCUCCAAUGCAUCCCACCACAUGAUGAUGCCUGAAGAGCCUUGGUUUUUUG", "note": "[G17U C49A C56A]", "polymerase ribozyme fitness (log ratio)": -4.3}
{"variant": "GACCAAUCUGCCCUCAUAGCUCGAGAACAUCUUCGGAUGGAGAGGAGGCAGGCUUCGGUGGCGCGAUAGCGCCAACGUCCUCAACCUCCAAUGCAUCCGACCACAUGAUGUUGCCUGAAGAGCCUUGGUUUUUUG", "note": "[G17U C40G C99G A111U]", "polymerase ribozyme fitness (log ratio)": -6.82}
{"variant": "GACCAAUCUGCCCUCAUAGCUCGAGAACAUCUUCGGAUGCAGAGGAGGCAGGCUUCGGUGGUGCGAUAGCGCUAACGUCCUCAACCUCCAAUGCAUCCCAACACAUGAUGAUGCCUGAAGAGCCUUGGUCUUUUG", "note": "[G17U C62U C73U C101A U130C]", "polymerase ribozyme fitness (log ratio)": -3.73}
{"variant": "GACCAAUCUGCCCUCAUAGAUCGAGAACAUCUUCGGAUGCAGAGGAGGCAGGCUUCGGUGUCGCGAUAGCGCCAACGUCCUCAACCACCAAUGCAUCCCACCACAUGAUGAUGCCUGAAGAGCCUUGGUUUUUUG", "note": "[G17U C20A G61U U87A]", "polymerase ribozyme fitness (log ratio)": -4.07}
{"variant": "GACCAAUCUGCCCUCAUAGCUCGAGAACAUCUUCGGAUGCAGAGGAGGCAGGCUUCGGUGGAGCGAUAGCGCCAACGUCCUCAACCUCCAAUGCAUCCCACCACAUGAUGAUGCCUGAAGAGCCUUGGUUUUUUG", "note": "[G17U C62A]", "polymerase ribozyme fitness (log ratio)": -2.83}
{"variant": "GACCAAUCUGCCCUCAUAGCUCGAGAACAUCUUCGGAUGCAGUGGAGGCAGGCUUCGGUGGCGCGAUAGCGCCAACGUCCUCAACCUCCAAUGCAUCCCACCACAUGAUGAUGCCUGAUGAGCCUUGGUUUUUUG", "note": "[G17U A43U A119U]", "polymerase ribozyme fitness (log ratio)": -5.06}
{"variant": "GACCAAUCUGCCCUCAUAGCUCGAGAACAUCUUAGGAUGCAGAGGAGGCAGGCUUCGGUGGCACGAUAGCGCCAACGUUCUCAACCUCCAAUGCAUCCCACCACAUGAUGAUGCAUGAAGAGCCUUGGUUUUUUG", "note": "[G17U C34A G63A C79U C115A]", "polymerase ribozyme fitness (log ratio)": -3.37}
{"variant": "GACCAAUCUGCCCUCAUAGCUCGAGAACAUCUUCGGAUGCAGAGGAGGUAGGCUUCGGUGGCGCGAUAGCGCCAACGUCCUCAACCUCCAAUGCAUCCCACCACAUGAUGAUGCUUGAAGAGGCUUGGUAUUUUG", "note": "[G17U C49U C115U C123G U130A]", "polymerase ribozyme fitness (log ratio)": -4.8}
{"variant": "GACCAAUCUGCCCUCAUAGCUCGAGAACAUCUUCGGAUGCAGAGGAGGCAGGCUUCGGUGGCGCGAUAGCGCCAACGUCCUCAACCUCCAAUGCAUCCCACCACAUGAUGGUGCCUGAAGAGCCUUGGUUUUGUG", "note": "[G17U A111G U133G]", "polymerase ribozyme fitness (log ratio)": -2.2}
{"variant": "GACCAAUCUGCCCUCAUAGCUCGAGAACAUCUUCGGAUGCAGAGGAGGCAGGCUUCGGUGGCGCGAUAGCGCCAACGUCCUCUACCUCCAAUGCAUCCCACCACAUGAUGAUGCCUGAAGAGGCUUGGUUUUUUG", "note": "[G17U A83U C123G]", "polymerase ribozyme fitness (log ratio)": -1.3}
{"variant": "GACCAAUCUGCCCUCAUAGCUGGAGAACAUCUGCGGAUGCAGAGGAGGCAGGCUUCGGUGACGCGAUAGCGCCAACGUCCUCAACCUCCAAUGCAUCCCACCACAUGAUGAUGCAUGAAGAGCCUUGGUUUUUUG", "note": "[G17U C22G U33G G61A C115A]", "polymerase ribozyme fitness (log ratio)": -4.69}
{"variant": "GACCAAUCUGCCCUCAUAGCUCGAGAAUAUCUUCGGAUACAGAGGAGGCAGGCUUCGGUGGCGCGAUAGCGCCAACGUCCUCAACCUCCAAUGCAUCCCACCACAUGAUAAUGCCUGAAGAGCCUUGGUUUUUUG", "note": "[G17U C28U G39A G110A]", "polymerase ribozyme fitness (log ratio)": -2.46}
{"variant": "GACCAAUCUGCCCUCAUAGCUCGAGAACAUCUUCGGAUGCAGAGGAGGAAGGCUUCGGUGGCGCGAUAGCGCCAACGUCCUCAACCUCCAAUGCAUCCCACCACAUGAUGAUGCCUGAAGAGCCUCGGUUUUUUG", "note": "[G17U C49A U126C]", "polymerase ribozyme fitness (log ratio)": -3.28}
{"variant": "GACCAAUCUGCCCUCAUAGCUCGAGAACAUCUUCGGAUGCAGAGGAGGCAGGCUUUGGUGGCGCGAUAGCGCCAACGUCCUCAACCUCCAAUGCAUCCCACCACAUGAUGAUGCCUGAAGAGCCUUGGUUUUUUG", "note": "[G17U C56U]", "polymerase ribozyme fitness (log ratio)": -2.12}
{"variant": "GACCAAUCUGCCCUCAUAGCUCGAGAACAUCUUCGGAUGCAGAGGAGGCAGGCUUGGGUGGCGCGAUAGCGCCAACGUCCUCAACCUCCAAUGCAUCCCACCACAUGAUGAUGCCUGAAGAGCCUUGGUUUUUUG", "note": "[G17U C56G]", "polymerase ribozyme fitness (log ratio)": -3.08}
{"variant": "GACCAAUCUGCCCUCAUAGCUCGAGAACAUCUUCGGAUGGAGAGGAGGCAGGCUUCGGUGGCGCGAUAGCGCCAACGUCCUCAACCUCGAAUGCAUCCCACCACAUGAUGAUGCCUGAAGAGCCUUGGUUUUUUG", "note": "[G17U C40G C89G]", "polymerase ribozyme fitness (log ratio)": -6.24}
{"variant": "GACCAAUCUGCCCUCAUAGCUCGAGAACAUCUUCGGAUGCAGAGGAGGAAGGCUUCGGUGGCGCGAUACCGCCAACGUCCUCAACCUCCAAUGCAUCCCACCACAUGACGAUGCAUGAAGAGCCUUGGUUUUUUG", "note": "[G17U C49A G69C U109C C115A]", "polymerase ribozyme fitness (log ratio)": -7.12}
{"variant": "GACCAAUCUGCCCUCAUAGCUCGAGAACAUCUUAGGAUGCAGAGGAGGCAGGCUUCGGUGGCGCGAUAGCGCCAACGUCCUCAACCUCCAAUGCAUCCCACCACAUGAUGAUGCCUGAAGAGCGUUGGUUUUAUG", "note": "[G17U C34A C124G U133A]", "polymerase ribozyme fitness (log ratio)": -2.78}
{"variant": "GACCAAUCUGCCCUCAUAGCUCGAGAACAUCUUCGGAUGCAGAGGAGGCAGGCUUCGGUGGCGCGAUAGCGCCAACGUCCUCAACCUCCAAUGCAUCCCACCACAUGAUGAUGCCUGUAGAGCCUUGGUUUUUUG", "note": "[G17U A118U]", "polymerase ribozyme fitness (log ratio)": -3.56}
{"variant": "GACCAAUCUGCCCUCAUAGCUCGAGAACAUCUUCGGAUGCAGAGGAGGCAGGCUUCGGUGGCGCGAUAGCGCCAACGUCCUCAUCCUCCAAUGCAUCCCACCACAUGAUGAUGCCUGAAGAGCCUUGGUUUUUUG", "note": "[G17U A84U]", "polymerase ribozyme fitness (log ratio)": -2.44}
{"variant": "GACCAAUCUGCCCUCAUAGCUCGAGAACAUCUUCGGAUGCAGAGGAGGCAGGCUUCGGUGGCGCGAUAGCGCCAACGUCCUCGACCUCCAAUGCAUCCCACCACAUGAUGAUGCCUGAAGAGCCUUGGUUUUUUG", "note": "[G17U A83G]", "polymerase ribozyme fitness (log ratio)": -2.64}
